# Laboratory results as given in patent publication US20260265379A1.
# B1: bsAb005 (bispecific antibody)
# heavy: QVQLVQSGAEVKKPGASVKLSCKASGYIFTRYYMYWVKQRPGQGLEWIGEINPNNGGTKFNEKFKNRATLTVDKSISTAYMELSRLRSDDTAVYYCSREDDYDGTPFAMDYWGQGTLVTVSSASTKGPSVFPLAPSSKSTSGGTAALGCLVKDYFPEPVTVSWNSGALTSGVHTFPAVLQSSGLYSLSSVVTVPSSSLGTQTYICNVNHKPSNTKVDKRVEPKSCDKTHTCPPCPAPEFEGGPSVFLFPPKPKDTLMISRTPEVTCVVVDVSHEDPEVKFNWYVDGVEVHNAKTKPREEQYNSTYRVVSVLTVLHQDWLNGKEYKCKVSNKALPASIEKTISKAKGQPREPQVYTLPPSREEMTKNQVSLTCLVKGFYPSDIAVEWESNGQPENNYKTTPPVLDSDGSFFLYSKLTVDKSRWQQGNVFSCSVMHEALHNHYTQKSLSLSPGGGGGSGGGGSGGGGSGGGGSEIVLTQSPATLSLSPGERATLSCRASKGVSTSGYSYLHWYQQKPGQAPRLLIYLASYLESGVPARFSGSGSGTDFTLTISSLEPEDFAVYYCQHSRDLPLTFGGGTKVEIKGGGGSGGGGSGGGGSGGGGSQVQLVQSGVEVKKPGASVKVSCKASGYTFTNYYMYWVRQAPGQGLEWMGGINPSNGGTNFNEKFKNRVTLTTDSSTTTAYMELKSLQFDDTAVYYCARRDYRFDMGFDYWGQGTTVTVSS
# light: not shown
# B2: bsAb035 (bispecific antibody, not shown: small tags and cut ends)
# heavy (part 1 of 2): QVQLVQSGAEVKKPGASVKLSCKASGYIFTRYYMYWVKQRPGQGLEWIGEINPNNGGTKFNEKFKNRATLTVDKSISTAYMELSRLRSDDTAVYYCSREDDYDGTPFAMDYWGQGTLVTVSS
# heavy (part 2 of 2): GGGGSGGGGSGGGGSGGGGSEVQLVESGGGLVQPGGSLRLSCAASGFTFSRYWMSWVRQAPGKGLEWVANIKQDGSEKYYVDSVKGRFTISRDNAKNSLYLQMNSLRAEDTAVYYCAREGGWFGELAFDYWGQGTLVTVSSGGGGSGGGGSGGGGSGGGGSEIVLTQSPGTLSLSPGERATLSCRASQRVSSSYLAWYQQKPGQAPRLLIYDASSRATGIPDRFSGSGSGTDFTLTISRLEPEDFAVYYCQQYGSLPWTFGQGTKVEIK
# heavy: B2 heavy (part 1 of 2)
# light: not shown
# B3: bsAb050 (bispecific antibody, not shown: small tags and cut ends)
# heavy 1: EVQLVESGGGLVQPGGSLRLSCAASGFTFSRYWMSWVRQAPGKGLEWVANIKQDGSEKYYVDSVKGRFTISRDNAKNSLYLQMNSLRAEDTAVYYCAREGGWFGELAFDYWGQGTLVTVSSGGGGSGGGGSGGGGSGGGGSEIVLTQSPGTLSLSPGERATLSCRASQRVSSSYLAWYQQKPGQAPRLLIYDASSRATGIPDRFSGSGSGTDFTLTISRLEPEDFAVYYCQQYGSLPWTFGQGTKVEIKGGGGSGGGGSGGGGSGGGGSQVQLVQSGAEVKKPGASVKLSCKASGYIFTRYYMYWVKQRPGQGLEWIGEINPNNGGTKFNEKFKNRATLTVDKSISTAYMELSRLRSDDTAVYYCSREDDYDGTPFAMDYWGQGTLVTVSS
# heavy 2: B2 heavy (part 1 of 2)
# light: not shown
# B4: bsAb040 (bispecific antibody, not shown: small tags and cut ends)
# heavy (part 1 of 2): B2 heavy (part 1 of 2)
# heavy (part 2 of 2): GGGGSGGGGSGGGGSGGGGSEIVLTQSPGTLSLSPGERATLSCRASQRVSSSYLAWYQQKPGQAPRLLIYDASSRATGIPDRFSGSGSGTDFTLTISRLEPEDFAVYYCQQYGSLPWTFGQGTKVEIKGGGGSGGGGSGGGGSGGGGSEVQLVESGGGLVQPGGSLRLSCAASGFTFSRYWMSWVRQAPGKGLEWVANIKQDGSEKYYVDSVKGRFTISRDNAKNSLYLQMNSLRAEDTAVYYCAREGGWFGELAFDYWGQGTLVTVSS
# heavy: B2 heavy (part 1 of 2)
# light: not shown
# B5: bsAb055 (bispecific antibody, not shown: a dimerising Fc or GST; small tags and cut ends)
# heavy 1: B2 heavy (part 2 of 2)
# heavy 2: B2 heavy (part 1 of 2)
# light: not shown
# B6: bsAb048 (bispecific antibody, not shown: small tags and cut ends)
# heavy 1: EIVLTQSPGTLSLSPGERATLSCRASQRVSSSYLAWYQQKPGQAPRLLIYDASSRATGIPDRFSGSGSGTDFTLTISRLEPEDFAVYYCQQYGSLPWTFGQGTKVEIKGGGGSGGGGSGGGGSGGGGSEVQLVESGGGLVQPGGSLRLSCAASGFTFSRYWMSWVRQAPGKGLEWVANIKQDGSEKYYVDSVKGRFTISRDNAKNSLYLQMNSLRAEDTAVYYCAREGGWFGELAFDYWGQGTLVTVSSGGGGSGGGGSGGGGSGGGGSQVQLVQSGAEVKKPGASVKLSCKASGYIFTRYYMYWVKQRPGQGLEWIGEINPNNGGTKFNEKFKNRATLTVDKSISTAYMELSRLRSDDTAVYYCSREDDYDGTPFAMDYWGQGTLVTVSS
# heavy 2: B2 heavy (part 1 of 2)
# light: not shown
# B7: bsAb051 (bispecific antibody, not shown: small tags and cut ends; a dimerising Fc or GST)
# heavy (part 1 of 2): B2 heavy (part 1 of 2)
# heavy (part 2 of 2): B2 heavy (part 2 of 2)
# heavy: B2 heavy (part 2 of 2)
# light: not shown
# B8: bsAb001 (bispecific antibody, human IgG1, kappa)
# heavy: QVQLVQSGAEVKKPGASVKLSCKASGYIFTRYYMYWVKQRPGQGLEWIGEINPNNGGTKFNEKFKNRATLTVDKSISTAYMELSRLRSDDTAVYYCSREDDYDGTPFAMDYWGQGTLVTVSSASTKGPSVFPLAPSSKSTSGGTAALGCLVKDYFPEPVTVSWNSGALTSGVHTFPAVLQSSGLYSLSSVVTVPSSSLGTQTYICNVNHKPSNTKVDKRVEPKSCDKTHTCPPCPAPEFEGGPSVFLFPPKPKDTLMISRTPEVTCVVVDVSHEDPEVKFNWYVDGVEVHNAKTKPREEQYNSTYRVVSVLTVLHQDWLNGKEYKCKVSNKALPASIEKTISKAKGQPREPQVYTLPPSREEMTKNQVSLTCLVKGFYPSDIAVEWESNGQPENNYKTTPPVLDSDGSFFLYSKLTVDKSRWQQGNVFSCSVMHEALHNHYTQKSLSLSPGGGGGSGGGGSGGGGSGGGGSQVQLVQSGVEVKKPGASVKVSCKASGYTFTNYYMYWVRQAPGQGLEWMGGINPSNGGTNFNEKFKNRVTLTTDSSTTTAYMELKSLQFDDTAVYYCARRDYRFDMGFDYWGQGTTVTVSSGGGGSGGGGSGGGGSGGGGSEIVLTQSPATLSLSPGERATLSCRASKGVSTSGYSYLHWYQQKPGQAPRLLIYLASYLESGVPARFSGSGSGTDFTLTISSLEPEDFAVYYCQHSRDLPLTFGGGTKVEIK
# light: not shown
# Target: BTN3A expressed at the cell surface (human), O00481
# Experiment: cell-based or functional assay
# Sequence of BTN3A expressed at the cell surface (human), O00481 (O00481 30-513): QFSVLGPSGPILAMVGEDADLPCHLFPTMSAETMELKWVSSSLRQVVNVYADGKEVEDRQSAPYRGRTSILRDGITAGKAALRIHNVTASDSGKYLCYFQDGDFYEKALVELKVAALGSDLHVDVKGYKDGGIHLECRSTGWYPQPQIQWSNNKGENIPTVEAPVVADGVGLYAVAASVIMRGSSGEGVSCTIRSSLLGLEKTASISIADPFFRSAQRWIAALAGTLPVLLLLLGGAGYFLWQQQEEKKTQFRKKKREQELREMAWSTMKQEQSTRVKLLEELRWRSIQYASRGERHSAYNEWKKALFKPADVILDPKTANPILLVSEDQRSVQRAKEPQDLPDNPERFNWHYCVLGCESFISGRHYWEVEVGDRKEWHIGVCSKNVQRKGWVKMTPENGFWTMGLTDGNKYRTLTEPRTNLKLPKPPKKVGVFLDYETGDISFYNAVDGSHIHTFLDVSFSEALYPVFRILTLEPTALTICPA
Jurkat-Vy9Vo2 TCR MOP activation at 0.5 nM (fold-change to medium),Jurkat-Vy9Vo2 TCR MOP activation at 5 nM (fold-change to medium),Binder
6,4.2,B1
14.1,11.2,B2
10.1,9.3,B3
10.4,8.8,B4
2.9,11.8,B5
8.2,7.9,B6
1.5,2.3,B7
6.5,4.5,B8
